Reference: the Human Domainome abundance scans (Beltran et al. 2025)
± gives the uncertainty stated by the source.

B1: Transcription elongation regulator 1-like protein, residues 448 to 504; numbered along this chain, Q5VWI1 (parent)
chain: LPLEERVTHFRDMLLERGVSAFSTWEKELHKIVFDPRYLLLNSEERKQIFEQFVKTR

Variants of: B1
Experiment: abundance fitness (aPCA) (normalised: wild type 0, dead -1); higher = more abundant; growth selection in yeast, the domain comes from the species named
Settings: Homo sapiens

LPPEERVTHFRDMLLERGVSAFSTWEKELHKIVFDPRYLLLNSEERKQIFEQFVKTR and LPAEERVTHFRDMLLERGVSAFSTWEKELHKIVFDPRYLLLNSEERKQIFEQFVKTR are within error of each other in abundance fitness: -0.212 ± 0.4 for the first, -0.337 ± 0.13 for the second.

LPGEERVTHFRDMLLERGVSAFSTWEKELHKIVFDPRYLLLNSEERKQIFEQFVKTR and LPNEERVTHFRDMLLERGVSAFSTWEKELHKIVFDPRYLLLNSEERKQIFEQFVKTR are within error of each other in abundance fitness: -0.214 ± 0.14 for the first, -0.031 ± 0.21 for the second.

LPVEERVTHFRDMLLERGVSAFSTWEKELHKIVFDPRYLLLNSEERKQIFEQFVKTR and LPFEERVTHFRDMLLERGVSAFSTWEKELHKIVFDPRYLLLNSEERKQIFEQFVKTR are within error of each other in abundance fitness: 0.28 ± 0.11 for the first, 0.04 ± 0.41 for the second.

First: LPSEERVTHFRDMLLERGVSAFSTWEKELHKIVFDPRYLLLNSEERKQIFEQFVKTR
Second: LPYEERVTHFRDMLLERGVSAFSTWEKELHKIVFDPRYLLLNSEERKQIFEQFVKTR
The abundance fitness of the first is lower: -0.704 ± 0.23 for the first, 0.138 ± 0.23 for the second.

LPQEERVTHFRDMLLERGVSAFSTWEKELHKIVFDPRYLLLNSEERKQIFEQFVKTR and LPMEERVTHFRDMLLERGVSAFSTWEKELHKIVFDPRYLLLNSEERKQIFEQFVKTR are within error of each other in abundance fitness: 0.591 ± 0.16 for the first, 0.309 ± 0.18 for the second.

LPKEERVTHFRDMLLERGVSAFSTWEKELHKIVFDPRYLLLNSEERKQIFEQFVKTR and LPHEERVTHFRDMLLERGVSAFSTWEKELHKIVFDPRYLLLNSEERKQIFEQFVKTR are within error of each other in abundance fitness: 0.487 ± 0.15 for the first, 0.663 ± 0.21 for the second.

LPWEERVTHFRDMLLERGVSAFSTWEKELHKIVFDPRYLLLNSEERKQIFEQFVKTR and LPEEERVTHFRDMLLERGVSAFSTWEKELHKIVFDPRYLLLNSEERKQIFEQFVKTR are within error of each other in abundance fitness: -0.116 ± 0.11 for the first, 0.132 ± 0.2 for the second.

WPLEERVTHFRDMLLERGVSAFSTWEKELHKIVFDPRYLLLNSEERKQIFEQFVKTR and APLEERVTHFRDMLLERGVSAFSTWEKELHKIVFDPRYLLLNSEERKQIFEQFVKTR are within error of each other in abundance fitness: -0.717 ± 0.16 for the first, -0.321 ± 0.33 for the second.

Compared with FPLEERVTHFRDMLLERGVSAFSTWEKELHKIVFDPRYLLLNSEERKQIFEQFVKTR, IPLEERVTHFRDMLLERGVSAFSTWEKELHKIVFDPRYLLLNSEERKQIFEQFVKTR is higher in abundance fitness: 0.408 ± 0.27 for the first, 2.04 ± 0.48 for the second.

VPLEERVTHFRDMLLERGVSAFSTWEKELHKIVFDPRYLLLNSEERKQIFEQFVKTR and SPLEERVTHFRDMLLERGVSAFSTWEKELHKIVFDPRYLLLNSEERKQIFEQFVKTR are within error of each other in abundance fitness: -0.4 ± 0.18 for the first, -0.082 ± 0.3 for the second.

Going from LDLEERVTHFRDMLLERGVSAFSTWEKELHKIVFDPRYLLLNSEERKQIFEQFVKTR to LRLEERVTHFRDMLLERGVSAFSTWEKELHKIVFDPRYLLLNSEERKQIFEQFVKTR, the abundance fitness falls from 1.26 ± 0.14 to 0.776 ± 0.092.

Compared with LKLEERVTHFRDMLLERGVSAFSTWEKELHKIVFDPRYLLLNSEERKQIFEQFVKTR, LQLEERVTHFRDMLLERGVSAFSTWEKELHKIVFDPRYLLLNSEERKQIFEQFVKTR is lower in abundance fitness: 0.925 ± 0.075 for the first, 0.364 ± 0.16 for the second.

Compared with LLLEERVTHFRDMLLERGVSAFSTWEKELHKIVFDPRYLLLNSEERKQIFEQFVKTR, LSLEERVTHFRDMLLERGVSAFSTWEKELHKIVFDPRYLLLNSEERKQIFEQFVKTR is higher in abundance fitness: -0.147 ± 0.26 for the first, 1.09 ± 0.14 for the second.

LNLEERVTHFRDMLLERGVSAFSTWEKELHKIVFDPRYLLLNSEERKQIFEQFVKTR and LELEERVTHFRDMLLERGVSAFSTWEKELHKIVFDPRYLLLNSEERKQIFEQFVKTR are within error of each other in abundance fitness: 1.18 ± 0.37 for the first, 0.88 ± 0.073 for the second.

LWLEERVTHFRDMLLERGVSAFSTWEKELHKIVFDPRYLLLNSEERKQIFEQFVKTR and LALEERVTHFRDMLLERGVSAFSTWEKELHKIVFDPRYLLLNSEERKQIFEQFVKTR are within error of each other in abundance fitness: 0 ± 0.31 for the first, 0.331 ± 0.18 for the second.

Compared with LCLEERVTHFRDMLLERGVSAFSTWEKELHKIVFDPRYLLLNSEERKQIFEQFVKTR, LTLEERVTHFRDMLLERGVSAFSTWEKELHKIVFDPRYLLLNSEERKQIFEQFVKTR is higher in abundance fitness: 0.766 ± 0.23 for the first, 1.24 ± 0.085 for the second.

LVLEERVTHFRDMLLERGVSAFSTWEKELHKIVFDPRYLLLNSEERKQIFEQFVKTR and LPLAERVTHFRDMLLERGVSAFSTWEKELHKIVFDPRYLLLNSEERKQIFEQFVKTR are within error of each other in abundance fitness: -0.031 ± 0.34 for the first, -0.368 ± 0.33 for the second.

Going from LPLLERVTHFRDMLLERGVSAFSTWEKELHKIVFDPRYLLLNSEERKQIFEQFVKTR to LPLPERVTHFRDMLLERGVSAFSTWEKELHKIVFDPRYLLLNSEERKQIFEQFVKTR, the abundance fitness falls from -0.151 ± 0.2 to -0.711 ± 0.29.

Going from LPLKERVTHFRDMLLERGVSAFSTWEKELHKIVFDPRYLLLNSEERKQIFEQFVKTR to LPLCERVTHFRDMLLERGVSAFSTWEKELHKIVFDPRYLLLNSEERKQIFEQFVKTR, the abundance fitness falls from 0.132 ± 0.16 to -0.458 ± 0.18.

LPLMERVTHFRDMLLERGVSAFSTWEKELHKIVFDPRYLLLNSEERKQIFEQFVKTR and LPLNERVTHFRDMLLERGVSAFSTWEKELHKIVFDPRYLLLNSEERKQIFEQFVKTR are within error of each other in abundance fitness: -0.646 ± 0.45 for the first, 0.154 ± 0.4 for the second.
